Test results: the supplement of paper PMC10567573

B1: SNX8 (parent)
chain: VVLKLFLSFSGSDVQNKLKESAQC

Variants of: B1
Assay: protein stability index of a GFP-peptide fusion (GPS, HEK-293T) (PSI 1-6); higher = more stable
Details: c terminus: a fixed tail appended
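Further: lentivirally expressed fusions sorted by FACS into six bins by GFP to DsRed ratio, PSI derived from sequencing read proportions per bin multiplied by bin number.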

Protein stability index, by site and new letter:
K17: T 3.29 | Y 3.54 | A 1.72 | W 4.7 | V 2.59 | L 3.46
D13: F 2.07 | H 3.62 | C 2.1 | Q 3.33 | T 2.28
G11: D 2.11 | V 3.28 | I 2.14 | R 3.97 | H 2.62 | C 1.74 | F 3.55 | S 2.41 | L 3.09 | Q 1.77 | A 2.33 | E 3.17 | Y 2.42
Q15: D 1.8 | F 3.49 | T 3.35 | C 4.88 | N 2.9 | M 4.13 | Y 3.96
S12: Q 3.23 | Y 4.07 | K 3.15 | T 3.29 | L 1.37 | D 3.29 | H 1.9 | A 2.2 | M 1.72 | W 3.39 | N 2.13 | P 3.58 | I 2.62
E20: D 3.55 | C 3.61 | A 2.89 | F 3.18
K19: F 2.79 | A 4.92 | M 2.37 | P 3.75 | N 2.76 | Q 5.1 | R 2.25 | I 2.23 | G 3.41
N16: K 2.2 | F 2.04 | I 2.64 | R 2.84 | G 1.35 | Q 4.03 | A 2.02 | W 3.64 | H 1.75
L5: D 2.41 | A 2.93 | F 3.22 | I 2.62 | K 2.59 | Q 2.61 | R 1.92 | E 1.79 | P 1.83 | Y 1.69 | C 2.91 | H 2.57 | G 1.55 | S 1.1
K4: F 2.27 | P 3.99 | Q 2.43 | N 2.76 | E 4.58 | H 2.6 | S 2.38
S10: R 2.08 | Y 2.26 | N 2.75 | T 4.41 | Q 2.18 | P 1.78 | A 1.79 | L 2.45 | W 3.92 | V 3.99 | D 2.68 | K 2.22 | M 1.38
S8: G 1.91 | R 1.92 | P 5.05 | W 2.64 | M 4.24 | L 2.45 | A 1.77
L7: G 1.43 | D 1.73 | H 3.04 | V 3.66 | P 2.34 | K 1.84 | Q 1.63 | F 2.35 | E 2.56 | N 1.09
F6: S 3.13 | E 1.31 | P 2.29 | K 3.48 | M 2.48 | N 3.24 | I 2.18 | D 1.17
L3: G 1.78 | E 1.57 | P 2.87 | T 1.2 | H 3.17 | F 3.59 | V 3.77 | K 2.5 | A 2.34 | C 2.4 | D 2.44 | S 1.66 | N 2.21 | Q 2.61 | Y 1.94
F9: I 3.38 | A 3 | V 3.52 | N 1.66 | T 2.41 | H 3.85 | E 1.11 | P 2.64 | K 1.72 | W 2.48 | Q 4.89 | R 2.42 | Y 3.17
L18: A 2.7 | C 3.48 | G 4.32 | E 2.26 | M 4.11 | T 2.13 | I 2.58 | R 1.5 | F 2.86 | W 1.93 | Q 4.56
V2: A 3.41 | E 1.39 | S 2.79
